Source: patent US20100093014A1, “SCREENING FOR BONE ANABOLIC FACTORS” (NORDIC BIOSCIENCE IMAGING A/S, priority 2007, published 2010)

System: TCF/LEF response elements
Assay: TOPflash luciferase reporter system (TCF/LEF response elements) in UMR-106 cells
Type: cell-based, rat
Description: We transiently infected UMR-106 cells (a rat sarcoma derived cell line) with a luciferase reporter system TOPflash containing 8 TCF/LEF response elements placed in the promoter region of the luciferase reporter gene.
To investigate the effect of secreted signals from osteoclasts we collected conditioned medium from osteoclasts cultured either on bone or on plastic, and compared their ability to induce activation of cells transiently transfected with the TCF/LEF reporter system to that of non-conditioned osteoclast culture medium. The cells were then treated for 24 hours with either control compounds, vehicle or the different conditioned media, after which the cells were lysed and the Luciferase activity was measured by a […] assay.

| Molecule | inhibition of TCF/LEF activation induced by conditioned medium from osteoclasts on bone (24 hours) | inhibition of TCF/LEF activation induced by signal from non-resorbing osteoclasts on plastic (24 hours) | inhibition of Wnt3A-induced TCF/LEF activation (activation by Wnt3A) | TCF/LEF activation (luciferase activity) (treated for 24 hours) |
| --- | --- | --- | --- | --- |
| DKK1: Wnt inhibitor (protein, UniProt O94907 32-266, looked up) Dickkopf-related protein 1: TLNSVLNSNAIKNLPPPLGGAAGHPGSAVSAAPGILYPGGNKYQTIDNYQPYPCAEDEECGTDEYCASPTRGGDAGVQICLACRKRRKRCMRHAMCCPGNYCKNGICVSSDQNHFRGEIEETITESFGNDHSTLDGYSRRTTLSSKMYHTKGQEGSVCLRSSDCASGLCCARHFWSKICKPVLKEGQVCTKHRRKGSHGLEIFQRCYCGEGLSCRIQKDHHQASNSSRLHTCQRH | inhibited | again was inhibited | inhibits this activation | – |
| Wnt3A: positive control for the TCF/LEF luciferase reporter (protein, UniProt P56704 19-352, looked up) Protein Wnt-3a: SYPIWWSLAVGPQYSSLGSQPILCASIPGLVPKQLRFCRNYVEIMPSVAEGIKIGIQECQHQFRGRRWNCTTVHDSLAIFGPVLDKATRESAFVHAIASAGVAFAVTRSCAEGTAAICGCSSRHQGSPGKGWKWGGCSEDIEFGGMVSREFADARENRPDARSAMNRHNNEAGRQAIASHMHLKCKCHGLSGSCEVKTCWWSQPDFRAIGDFLKDKYDSASEMVVEKHRESRGWVETLRPRYTYFKVPTERDLVYYEASPNFCEPNPETGSFGTRDRTCNVSSHGIDGCDLLCCGRGHNARAERRREKCRCVFHWCCYVSCQECTRVYDVHTCK | – | – | – | induces a strong activation |
